Series [1] concerns BPLER cells. The series is described as follows: Cell viability after drug treatment (CellTiterGlo / Trypan-Blue). The class given is cell-based, human. To be noted: 24 hr; for sensitivity of BPLER relative to HMLER cells (viability): increasing doses; for relative viability of BPLER and HMLER cells: CellTiterGlo (FIG. 14).
Another series relates to BPE cells. The settings on record: at the indicated dose.
The subject of series [2] is BPLER cells. Kind of series: Apoptosis (Annexin V/PI flow cytometry, caspase 3 and PARP cleavage immunoblot). The settings on record: 24 hours. The class given is cell-based, human. The method, then: BPLER were used as control. […] The percentage of double-positive cells is indicated.
To further define factors underlying such properties of BPLER cells, we first determined the molecular mechanism by which proteasome inhibition affects the growth of these cells.
Immunoblot was performed as described^41. Primary antibodies were as follows: cleaved Caspase 3 (Cell Signaling, rabbit polyclonal, 1:1000), PARP1 (Santa Cruz, rabbit polyclonal, 1:500), MCL1 (Cell Signaling, Rabbit polyclonal, 1:1000), Bim (Santa Cruz, rabbit polyclonal, 1:500), Bik (Cell Signaling, rabbit polyclonal, 1:1000), Puma (Cell Signaling, rabbit polyclonal, 1:1000), Noxa (Calbiochem, mouse monoclonal, 1:500), Bid (Santa Cruz, rabbit polyclonal, 1:500), Bad (Santa Cruz, rabbit polyclonal, 1:500). Antibodies were diluted in 5% milk in TBS-T and incubated O.N. at 4° C. Secondary mouse and rabbit HRP-conjugated antibodies were from Amersham. Protein signal was detected using the ECL Plus kit (Amersham). For flow cytometry, cells were stained as previously described^33, using the following fluorescent-conjugated antibodies: CD44 (BD Biosciences), CD24 (BD Biosciences), CD326 (ESA, Biolegend), Annexin V (Invitrogen). For immunofluorescence microscopy, cells were fixed in 2% PFA for 10 min, permeabilized with 1% Triton X in PBS for 5 min, and incubated with primary antibodies in 0.5% Triton X, 1% FBS in PBS for 30 min at RT. Antibodies were: CK18 (Santa Cruz, mouse monoclonal, 1:100) and CK14 (Millipore, mouse monoclonal, 1:100). After washing the cells were stained sequentially with AlexaFluor647-conjugated secondary antibody (Invitrogen, 1:200) and DAPI (Sigma, 1:5000). For immunohistochemistry, BPLER tumor sections were prepared from paraffin-embedded tissues, deparaffinized and treated with 10% citrate buffer for 15 min. Staining was performed using a BIOGENEX IHC DAB kit (Biogenex) following the manufacturer's protocol. Primary antibodies were: CK14 (Millipore, mouse monoclonal, 1:100), CK5 (Millipore, mouse monoclonal, 1:100), HH3 (Cell Signaling, rabbit polyclonal, 1:100), ER (Abcam, mouse monoclonal, 1:100), Vimentin (Invitrogen, mouse monoclonal 1:100), Ki67 (Millipore, mouse monoclonal, 1:100).

In series [3] the test system is BPE, HMLER and BPLER cells. Kind of series: Cell cycle distribution (propidium iodide DNA staining). The settings on record: BPE, HMLER and BPLER, 24 hours.
The subject of series [4] is BPLER cells. The series is described as follows: Genome-wide siRNA lethality screen (primary screen), CellTiterGlo viability. The settings on record: for MAD BPLER / Fold BPLER: siRNA pool against the gene; for MAD BPLER: MAD score of viability in BPLER cells; for Fold BPLER: fold viability in BPLER cells. The class given is cell-based, human.
In another series the test system is HMLER cells. The series is described as above. It counts as cell-based, human. The settings on record: siRNA pool against the gene; for MAD_HMLER / Fold_HMLER: primary screen, HMLER cells; for MAD_HMLER: MAD score; for Fold_HMLER: fold viability; for MAD HMLER: MAD score of viability in HMLER cells; for Fold HMLER: fold viability in HMLER cells.
For series [5], the system named is BPLER cells. Kind of series: Secondary (cherry-pick) screen with the 4 individual siRNAs of each pool. The settings on record: for Cherry_Score: secondary cherry-pick screen, 4 individual siRNAs of each pool; for Cherry Score: secondary screen with the 4 individual siRNAs of each pool.
[6] abbreviates: ratio of Fold_BPLER to Fold_HMLER.
[7] abbreviates: ratio of fold viability BPLER/HMLER.

Consider `COc1cccc2c1C(=O)c1c(O)c3c(c(O)c1C2=O)C[C@@](O)(C(=O)CO)C[C@@H]3O[C@H]1C[C@H](N)[C@H](O)[C@H](C)O1` [doxorubicin], for which, in the series on BPLER cells [1], the “sensitivity of BPLER relative to HMLER cells (viability)” value is given as “responded similarly”.

Consider `COc1ccc([C@@H]2CC(=O)c3c(O)cc(O)cc3O2)cc1O` [Hesperetin], for which, in the series on BPLER cells [1], the “relative viability of BPLER and HMLER cells” value (“relative viability” below) is recorded as “not active”.

`O=C(CCCCCCC(=O)Nc1ccccc1)NO` [Vorinostat, N′-hydroxy-N-phenyl-octanediamide]: the “sensitivity of BPLER relative to HMLER cells (viability)” value with BPLER cells [1] was “selectively lethal for BPLER compared to HMLER”. Moreover, the BPE viability entry with BPE cells is given as “no effect on BPE viability”.

As for `NC(N)=NOCC[C@H](N)C(=O)O` [L-cavananine], in the series with BPLER cells [1], the “relative viability” value is “not active”.

As to `COC(=O)Nc1nc2ccc(C(=O)c3cccs3)cc2[nH]1` [nocodazole], in the series with BPLER cells [2], the “activation of apoptosis by mitotic arrest” value is recorded as “sufficient to activate apoptosis in BPLER cells”. The mitotic arrest entry in series [3] was “underwent mitotic arrest”.

For the molecule `O=C(O)C(=O)CBr` [BRPA, 3-bromo-pyruvic acid], in the series with BPLER cells [1], the “sensitivity of BPLER relative to HMLER cells (viability)” value is “more sensitive”.

As for `CC(=O)N(O)CCCCCNC(=O)CCC(=O)N(O)CCCCCNC(=O)CCC(=O)N(O)CCCCCN` [Deferoxamine], in the series with BPLER cells [1], the “relative viability” value is on record as “not active”.

`COc1ccc2cc(CCC(C)=O)ccc2c1` [Nabumetone]: the “relative viability” value with BPLER cells [1] was “not active”.

B1: TMEM14B (nucleic acid, listed as Homo sapiens)
DNA: TTTCTCCCCGCCCTGCCGCGGCCCCGGGGCGCAGCGCGCACGCAATCGCGTTTCCGGAGAGACCTGGCTGCTGTGTCCCGCGGCTTGCGCTCCGTAGTGGACTCCGCGGGCCTTCGGCAGATGCAGGCCTGGGGTAGTCTCCTTTCTGGACTGAGAAGAGAAGAATGGAGAAGCCCCTCTTCCCATTAGTGCCTTTGCATTGGTTTGGCTTTGGCTACACAGCACTGGTTGTTTCTGGTGGGATCGTTGGCTATGTAAAAACAGGCAGCGTGCCGTCCCTGGCTGCAGGGCTGCTCTTCGGCAGTCTAGCCGGCCTGGGTGCTTACCAGCTGTATCAGGATCCAAGGAACGTTTGGGGTTTCCTAGCCGCTACATCTGTTACTTTTGTTGGTGTTATGGGAATGAGATCCTACTACTATGGAAAATTCATGCCTGTAGGTTTAATTGCAGGTGCCAGTTTGCTGATGGCCGCCAAAGTTGGAGTTCGTATGTTGATGACATCTGATTAGCAGAAGTCATGTTCCAGCTTGGACTCATGAAGGATTAAAAATCTGCATCTTCCACTATTTTCAATGTATTAAGAGAAATAAGTGCAGCATTTTTGCATCTGACATTTTACCTAAAAAAAAAAAGACACCAAATTTGGCGGAGGGGTGGAAAATCAGTTGTTACCATTATAACCCTACAGAGGTGGTGAGCATGTAACATGAGCTTATTGAGACCATCATAGAGATCGATTCTTGTATATTGATTTTATCTCTTTCTGTATCTATAGGTAAATCTCAAGGGTAAAATGTTAGGTGTTGACATTGAGAACCCTGAAACCCCATTCCCTGCTCAGAGGAACAGTGTGAAAAAAAATCTCTTGAGAGATTTAGAATATCTTTTCTTTTGCTCATCTTAGACCACAGACTGACTTTGAAATTATGTTAAGTGAAATATCAATGAAAATAAAGTTTACTATAAATAATAAAAAAAAAAAAAAAAAA
Consider B1, for which the “Ratio BPLER/HMLER” value in the series on BPLER cells [4] (setting [6]) worked out at 0.71. Moreover, the “Ratio BPLER/HMLER” value in the series on BPLER cells [4] (setting [7]) stood at 0.71. Besides, in the series on BPLER cells [4], the “MAD BPLER” value is listed as −1.99 and the “Fold BPLER” value was determined as 0.636. Besides, in the series with HMLER cells, the MAD_HMLER is −0.56, the Fold_HMLER stood at 0.90, the “MAD HMLER” value was −0.56 and the “Fold HMLER” value amounted to 0.90. Moreover, in the series with BPLER cells [5], the Cherry_Score stood at 1 and the “Cherry Score” value is recorded as 1.

B2: TMED3 (nucleic acid, listed as Homo sapiens)
DNA: ATCCCCTTACATCCTCCTAGGACCCGGTCGGTAGTCGTCGCCCCAGCCCGCCGGGGGCGCAGCGCCCGAGCCGCGGCCCTCGAGACGGGACCGAGAGCATCATGGGCAGCACTGTCCCGCGCTCCGCCTCCGTGCTGCTTCTGCTGCTGCTCCTGCGCCGGGCCGAGCAGCCCTGCGGGGCCGAGCTCACCTTCGAGCTGCCGGACAACGCCAAGCAGTGCTTCCACGAGGAGGTGGAGCAGGGCGTGAAGTTCTCCCTGGATTACCAGGTCATCACTGGAGGCCACTACGATGTTGACTGCTATGTAGAGGACCCCCAGGGGAACACCATCTACAGAGAAACGAAGAAGCAGTACGACAGCTTCACGTACCGGGCTGAAGTCAAGGGCGTTTATCAGTTTTGCTTCAGTAATGAGTTTTCCACCTTCTCTCACAAGACCGTCTACTTTGACTTTCAAGTGGGCGATGAGCCTCCCATTCTCCCAGACATGGGGAACAGGGTCACAGCTCTCACCCAGATGGAGTCCGCCTGCGTGACCATCCATGAGGCTCTGAAAACGGTGATTGACTCCCAGACGCATTACCGGCTGCGGGAGGCCCAGGACCGGGCCCGAGCGGAAGACCTTAATAGCCGAGTCTCTTACTGGTCTGTTGGCGAGACGATTGCCCTGTTCGTGGTCAGCTTCAGTCAGGTGCTACTGTTGAAAAGCTTCTTCACAGAAAAACGACCCATCAGCAGGGCAGTCCACTCCTAGCCCCGGCATCCTGCTCTAGGGCCCCTCATGCCCCAGGCTGGAGCAGCTCTCCTAGGTCACAGCCTGCTGGGCTGGGTCGCGTAGCCCAGGGTGGAGGCAGAACGATGCTGCTGTGGTAGCCCTTTGCCTTTCATGCCCATGCTTGATTCTTGCACCTCAGCAGCTGAAGGTCTCAGAGACCAGTAATCAGAAGGCATCCGACTGCATTAAGTGTGCAGCGCTGAAAAGACATTTACAACTAGGCCAGGGATTAGCCACTGTGGGAGGGTGGACAGGCAATGGTTCAGTGGCCTGGCTGTTGGCAGGAACTCCAAGTGCCCAGGCCTCTTGGGCAGCTTAGGGCCCTGCCTCTGTTTCATGATGCATGGGTCATTTGTCTTGGGTGTCCTATCCCATATGGAGAAGAAAGGGGCTCTAAGTTCTGGCTCTTCTTTCTTTGGGGTTCTCTGTACCTGAGGAAACCAGGCCCTGGGTGACTTTGCAGATCTGCTCACCCTCGGTGAGCAACAGTGTCAGCCATGCAAGCAGGACAGAATGGTGACTGGGTGCCCTTGGTGAGCTGTGTATTTCCTAGGAGGTAGAAAACTGTGGGAAACTGTGGCTAATAAAAACTAAGTGTGAGCGTCCTGGAGAAAAAAAAAAAAAAAAAAAAAAAAAAAAAAAAAAAAAAAAAAAAAAAA
Take B2: in the series with BPLER cells [4] (setting [6]), the “Ratio BPLER/HMLER” value is 0.68. The “Ratio BPLER/HMLER” value in the series on BPLER cells [4] (setting [7]) stood at 0.68. In the series with BPLER cells [4], the “MAD BPLER” value is reported as −2.93 and the “Fold BPLER” value was 0.537. For the same molecule, in the series with HMLER cells, the MAD_HMLER is listed as −1.28, the Fold_HMLER was determined as 0.80, the “MAD HMLER” value is −1.28 and the “Fold HMLER” value is 0.80. Further, in the series on BPLER cells [5], the Cherry_Score was found to be 2 and the “Cherry Score” value came to 2.

For the origin of these results see patent publication US9689040B2, “Selective inhibitors of tumor-initiating cells” (Children's Medical Center Corporation, priority 2011, dated 2017).
